Results on two molecules are retold here after patent publication US10093706, “Dominant positive hnRNP-E1 polypeptide compositions and methods” (Indiana University Research and Technology Corporation).

One data set concerns the target hnRNP-E1(C293S) (Homo sapiens, UniProt Q15365 SEQ:1-356). Kind of data set: no L-homocysteine; Scatchard. As to conditions: tags: GST fusion (pGEX-4T-1, E. coli BL21); label: 35S. As for the experimental part:
(§1) Specific binding was determined by subtracting values of non-specific binding with GST from those of total binding with GST-hnRNP-E1; (however, in Table 1 and FIG. 6G, non-specific binding using bovine serum albumin (BSA) was subtracted from total binding to GST-hnRNP-E1 to determine specific binding). The K_D was calculated from a Scatchard plot using GraphPad Prism 6 from GraphPad Software (San Diego, Calif.), as previously described in the art.

Another data set has as its target hnRNP-E1(G292A) (Homo sapiens, UniProt Q15365 SEQ:1-356, G292A). Kind of data set: no L-homocysteine; Scatchard; no gel-shift signal in this condition (FIG. 1B). As to conditions: tags: GST fusion (pGEX-4T-1, E. coli BL21); label: 35S. As for the experimental part:
as §1

For data set [1], the target named is hnRNP-E1 (PCBP1) wild-type (Homo sapiens, UniProt Q15365 SEQ:1-356). Briefly: EMSA; 15 uM L-homocysteine; complete quenching of signal. As to conditions: tags: GST fusion (pGEX-4T-1, E. coli BL21).
hnRNP-E1 (PCBP1) wild-type, sequence (Q15365 whole entry A205V, the tested form may be a part): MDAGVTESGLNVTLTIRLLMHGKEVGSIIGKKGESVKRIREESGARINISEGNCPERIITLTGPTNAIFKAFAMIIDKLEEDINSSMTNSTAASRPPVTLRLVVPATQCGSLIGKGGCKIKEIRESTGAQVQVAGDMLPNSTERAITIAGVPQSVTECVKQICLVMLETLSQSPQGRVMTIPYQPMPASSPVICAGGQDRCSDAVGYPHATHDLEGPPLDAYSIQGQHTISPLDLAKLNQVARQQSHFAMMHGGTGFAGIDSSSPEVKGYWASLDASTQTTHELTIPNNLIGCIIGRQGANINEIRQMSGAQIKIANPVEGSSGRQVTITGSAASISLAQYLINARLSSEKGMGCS

hnRNP-E1(G292A), sequence (Q15365 whole entry A205V/G292A, the tested form may be a part): as the sequence (Q15365 whole entry A205V, the tested form may be a part) above, with G292A counted along it
hnRNP-E1(C293S), sequence (Q15365 whole entry A205V/C293S, the tested form may be a part): as the sequence (Q15365 whole entry A205V, the tested form may be a part) above, with C293S counted along it

Regarding CUCCCGCCCGCUCCCGCUCGCUCCC (ssRNA) [25-nt hnRNP-E1 mRNA 5'-UTR cis-element], the Kd (usually the concentration at which binding is half-saturated) in the data set with hnRNP-E1(C293S) came to 0.39 nM; with hnRNP-E1(G292A), 2.02 nM. For CUUCCGCCCGCUCCCGCUCGCUUCC (ssRNA) [25-nt cis-element mutation 6], the binding result in data set [1] is “no binding”.
